From patent US20180339057A1 (Novo Nordisk, published 2018)
Numbering of substitutions follows the chain as printed. Names and notes keep the numbering of the source.

B1: (GEPS)5-MIC-1(SEQ ID NO: 1) (ligand)
chain: GEPSGEPSGEPSGEPSGEPSARNGDHCPLGPGRCCRLHTVRASLEDLGWADWVLSPREVQVTMCIGACPSQFRAANMHAQIKTSLHRLKPDTVPAPCCVPASYNPMVLIQKTDTGVSLQTYDDLLAKDCHCI
B2: AASPAGSPTSTEEGTSESATPESGPG-MIC-1(SEQ ID NO: 1) (ligand)
chain: AASPAGSPTSTEEGTSESATPESGPGARNGDHCPLGPGRCCRLHTVRASLEDLGWADWVLSPREVQVTMCIGACPSQFRAANMHAQIKTSLHRLKPDTVPAPCCVPASYNPMVLIQKTDTGVSLQTYDDLLAKDCHCI
B3: TSESATPESGPGTSESATPESGPG-MIC-1(R2A,N3E) (ligand)
chain: TSESATPESGPGTSESATPESGPGAAEGDHCPLGPGRCCRLHTVRASLEDLGWADWVLSPREVQVTMCIGACPSQFRAANMHAQIKTSLHRLKPDTVPAPCCVPASYNPMVLIQKTDTGVSLQTYDDLLAKDCHCI
B4: SPAGSPTSTEEGTSESATPESGPG-MIC-1(SEQ ID NO: 1) (ligand)
chain: SPAGSPTSTEEGTSESATPESGPGARNGDHCPLGPGRCCRLHTVRASLEDLGWADWVLSPREVQVTMCIGACPSQFRAANMHAQIKTSLHRLKPDTVPAPCCVPASYNPMVLIQKTDTGVSLQTYDDLLAKDCHCI
B5: MIC-1(R2A,N3E,H18E) (ligand)
chain: AAEGDHCPLGPGRCCRLETVRASLEDLGWADWVLSPREVQVTMCIGACPSQFRAANMHAQIKTSLHRLKPDTVPAPCCVPASYNPMVLIQKTDTGVSLQTYDDLLAKDCHCI
B6: MIC-1(R2A,N3E,R21E) (ligand)
chain: B5 chain with E18H, R21E
B7: MIC-1(R2A,N3E,L68E) (ligand)
chain: B5 chain with E18H, L68E
B8: MIC-1(R2A,N3E,P85E) (ligand)
chain: B5 chain with E18H, P85E
B9: MIC-1(R2A,N3E,P11E) (ligand)
chain: B5 chain with P11E, E18H
B10: MIC-1(R2A,N3E,A30E) (ligand)
chain: B5 chain with E18H, A30E
B11: MIC-1(R2A,N3E,R67E) (ligand)
chain: B5 chain with E18H, R67E
B12: MIC-1(R2A,N3E,R53E) (ligand)
chain: B5 chain with E18H, R53E
B13: MIC-1(R2A,N3E,A47E) (ligand)
chain: B5 chain with E18H, A47E
B14: MIC-1(R2A,N3E,L105E) (ligand)
chain: B5 chain with E18H, L105E
B15: AES-MIC-1-Δ1-3 (ligand)
chain: B5 chain with A2E, E3S, E18H
B16: MIC-1(R2A, N3E) (ligand)
chain: B5 chain with E18H
B17: MIC-1(R2A,N3E,K69E) (ligand)
chain: B5 chain with E18H, K69E
B18: MIC-1(R2A,N3E,K107E) (ligand)
chain: B5 chain with E18H, K107E
B19: MIC-1(R2A,N3E,M57E) (ligand)
chain: B5 chain with E18H, M57E
B20: (AEE)3AES-MIC-1-Δ1-3 (ligand)
chain: AEEAEEAEEAESGDHCPLGPGRCCRLHTVRASLEDLGWADWVLSPREVQVTMCIGACPSQFRAANMHAQIKTSLHRLKPDTVPAPCCVPASYNPMVLIQKTDTGVSLQTYDDLLAKDCHCI
B21: (AEE)5AES-MIC-1-Δ1-3 (ligand)
chain: AEEAEEAEEAEEAEEAESGDHCPLGPGRCCRLHTVRASLEDLGWADWVLSPREVQVTMCIGACPSQFRAANMHAQIKTSLHRLKPDTVPAPCCVPASYNPMVLIQKTDTGVSLQTYDDLLAKDCHCI
B22: (AEE)2AES-MIC-1-Δ1-3 (ligand)
chain: AEEAEEAESGDHCPLGPGRCCRLHTVRASLEDLGWADWVLSPREVQVTMCIGACPSQFRAANMHAQIKTSLHRLKPDTVPAPCCVPASYNPMVLIQKTDTGVSLQTYDDLLAKDCHCI
B23: (AEE)6AES-MIC-1 (ligand)
chain: AEEAEEAEEAEEAEEAEEAESGDHCPLGPGRCCRLHTVRASLEDLGWADWVLSPREVQVTMCIGACPSQFRAANMHAQIKTSLHRLKPDTVPAPCCVPASYNPMVLIQKTDTGVSLQTYDDLLAKDCHCI
B24: AEEAES-MIC-1-Δ1-3 (ligand)
chain: AEEAESGDHCPLGPGRCCRLHTVRASLEDLGWADWVLSPREVQVTMCIGACPSQFRAANMHAQIKTSLHRLKPDTVPAPCCVPASYNPMVLIQKTDTGVSLQTYDDLLAKDCHCI
B25: AASPAGSPTSTEEGTSESATPESGPG-MIC-1-Δ1-3 (ligand)
chain: AASPAGSPTSTEEGTSESATPESGPGGDHCPLGPGRCCRLHTVRASLEDLGWADWVLSPREVQVTMCIGACPSQFRAANMHAQIKTSLHRLKPDTVPAPCCVPASYNPMVLIQKTDTGVSLQTYDDLLAKDCHCI

Each binder was assayed against T1, human MIC-1 receptor (hGFRAL, GDNF family receptor alpha like), full length (human, UniProt Q6UXV0 19-394) (assay: cell-based or functional assay).
T1 sequence (looked up): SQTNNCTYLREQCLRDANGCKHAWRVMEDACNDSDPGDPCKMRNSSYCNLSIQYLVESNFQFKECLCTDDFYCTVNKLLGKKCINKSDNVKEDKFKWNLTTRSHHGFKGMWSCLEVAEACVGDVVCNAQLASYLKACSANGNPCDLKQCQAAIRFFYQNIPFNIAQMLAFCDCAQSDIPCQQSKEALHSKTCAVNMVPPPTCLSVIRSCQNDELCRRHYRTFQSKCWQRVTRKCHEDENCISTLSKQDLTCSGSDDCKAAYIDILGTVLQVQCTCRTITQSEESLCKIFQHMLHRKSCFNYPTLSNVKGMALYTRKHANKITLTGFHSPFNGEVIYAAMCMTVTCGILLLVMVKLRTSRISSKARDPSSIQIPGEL

Emax (%), 70%:
B19

Emax (%), 100%:
B1
B2
B3
B4
B5
B6
B7
B8
B9
B10
B11
B12
B13
B14
B15
B16
B17
B18
B20
B21
B22
B23
B24
B25

pERK EC50 (nM), 0.4 nM:
B2
B4
B9
B12
B13
B22

pERK EC50 (nM), 0.8 nM:
B7
B23

pERK EC50 (nM), 0.6 nM:
B6
B8

pERK EC50 (nM), 0.5 nM:
B1
B5
B11
B17
B20
B21

pERK EC50 (nM), 0.3 nM:
B3
B15
B16
B18
B19
B24

pERK EC50 (nM), 0.7 nM:
B10
B14
B25
